This is an account of results in patent publication US20250082769A1, “CELLULAR UPTAKE PEPTIDE-THERAPEUTIC PAYLOAD COMPOSITIONS AND METHODS OF USE” (Nighthawk Biosciences, Inc., priority 2022, published 2025).

Where two headings read alike, the source gives them in different places. Non-standard residues stand in square brackets, D forms with d. Residues, ends and D or L forms follow the SMILES beside them. *: point of attachment. Dolaproine = CO[C@@H]([C@@H]1CCCN1)[C@@H](C)C(=O)O; Dil = CC[C@H](C)[C@H](NC)[C@@H](CC(=O)O)OC; X1 = C[C@@H](N*)[C@@H](O)c1ccccc1; NMeV = CN[C@H](C(=O)O)C(C)C Where only a bound is given, the exact number is not on record here.

One test has as its system A431 cells. Put plainly: Dose response / cell viability in A431 cells. In kind it is cell-based, human. As for the experimental part: (§1) Biological activity of the peptides was determined using various assays. To determine proliferative activity, cells were plated at 5×10^3 cells per well in a 96-well microtiter plate. Samples and controls were added and the plates incubated for 24, 48 and 72 hours at 37° C. Viability was determined by adding WST-1 and reading at […] over 1-4 hours. Alternatively, viability was determined using a kit such as the EZViable calcein AM cell viability assay (BioVision) or the Live/Dead Cell imaging kit (ThermoFisher). Induction of cell events such as apoptosis was determined using reagents such as Cell Event Caspase 3/7 reagent (ThermoFisher).
(§2) Cells were plated at 5000 cells/well in 100 ul D10 on day 0.100 ul of PDCs were added and titrated 1:1 in D10 (starting concentration=500 nM). WST-1 was added at 72 hours and the plates read over 5 hours at […] in a Promega GloMax.
A pocket biologic (peptide or antibody) having an internalization portion, a linker, and a localization signal was developed to deliver a drug or biological therapeutic into the cell. […] 429-MMAE-1 and 429-NLS-Panobinostat constructs were developed for in vivo studies. G292 cell lines and A431 cell lines were used in the in vivo studies. G292 cells were derived from a primary osteosarcoma of a person. […] A431 cells were established from an epidermoid carcinoma in the skin (epidermis) of a patient. Epidermal growth factor (EGF) stimulation of A431 cells induces rapid tyrosine phosphorylation of intracellular signaling proteins which control cellular processes such as growth, proliferation and apoptosis. […] 429-MMAE affected cell viability in G292 cell lines (FIG. 16A-FIG. 17). 429-MMAE at 50 nm, 125 nm, 250 nm, 500 nm concentrations and OV-MMAE conjugates at 50 nm, 125 nm, 250 nm, 500 nm concentrations were compared to DMSO and MMAE at 50 nm in G292 cells.

In a further test the test system is microtubules. Put plainly: ViaFluor 647 live cell microtubule stain (FIG. 6). In kind it is cell-based. Conditions: ViaFluor 647 stain, 60 minutes at 37° C. As for the experimental part: Cells were stained with ViaFluor 647 live cell microtubule stain (Biotium). Cells were treated as in FIG. 3 and stain with ViaFluor for 60 minutes at 37° C.
Test [1] concerns CHLA06 cells. Put plainly: Dose response / cell viability in CHLA06 cells. It counts as cell-based. As to the method: as §1
The test system of test [2] is cancer cell lines of different lineages. Put plainly: Internalization of OV-8 in cell lines. It counts as cell-based. Conditions: FIG. 2.
In the next test the test system is HCT116 cells. Put plainly: Dose response / cell viability in HCT116 cells. In kind it is cell-based, human. The conditions noted are these: HCT116 Myc-reporter cells. As for the experimental part:
as §1, §2

Test [3] has as its system CHLA06 cells. Put plainly: Caspase assay (apoptosis) in CHLA06 cells. It counts as cell-based. The conditions noted are these: SMARCB1 conjugate and tazemetostat treatments. As for the experimental part:
as §1
429-MMAE was also compared with 429-SM in various cell lines. 429-SM represents 429-Smarc-MMAE and consists of 429-linker-NLS-SMARCB1 mimic to which 1 or 2 MMAE molecules are conjugated through the cysteines. CHLA06 cells were plated at 10,000 cells/well in B27-5 overnight. Samples were added and incubated for 48 hours at 37° C. Caspase 3/7 reagent was added and plates were read after 30 minutes at room temperature. […] Induction of apoptosis is directly correlated with drug concentration (i.e., higher the concentration of drug, the higher the apoptotic effect). […] 429-SM was also effective in A431 and HCT116 cells (FIG. 42C-42D).

A further test relates to Myc transcription. Put plainly: Myc transcription in HCT116 Myc-reporter cells. It counts as cell-based, human. The conditions noted are these: for inhibition of Myc transcription: dose series.
In test [4] the test system is CHLA06 cells. Put plainly: Confocal microscopy of 429-SMARCB1 in CHLA06 cells. In kind it is cell-based. Conditions: confocal fluorescent microscopy.
A further test relates to ATRT cell lines. Put plainly: Apoptosis in ATRT cell lines, combination with tazemetostat. It counts as cell-based.
A further test relates to CHLA02 cells. Put plainly: Caspase activity / apoptosis in CHLA02 cells. In kind it is cell-based. The conditions noted are these: CHL02 cells; SMARCB1 Mimic (F) and tazemetostat treatments. As to the method: as §1

Usually IC50 stands for the concentration that inhibits the measured activity by half. `CC[C@H](C)[C@@H]([C@@H](CC(=O)N1CCC[C@H]1[C@H](OC)[C@@H](C)C(=O)N[C@H](C)[C@@H](O)c1ccccc1)OC)N(C)C(=O)[C@@H](NC(=O)[C@@H](NC)C(C)C)C(C)C` [MMAE, monomethyl auristatin E, reference compound] (H-[NMeV]V[Dil][Dolaproine]-X1): the IC50 in the test on A431 cells (A431 cells, MMAE at 1:3 dilutions, FIG. 20A, read-out: IC50 value (four-parameter non-linear regression)) is 0.0712 nM. The disruption of microtubules entry with microtubules is “disrupt microtubules”.
Regarding `Cc1[nH]c2ccccc2c1CCNCc1ccc(/C=C/C(=O)NO)cc1` [Panobinostat, reference compound], the IC50 was 108 nM in the test with A431 cells (Homo sapiens, A-431, A431 cells, FIG. 20B, FIG. 24A, read-out: IC50 value) and more than 500 nM with A431 cells (Homo sapiens, A-431, printed as A431 treated with Panobinostat, in the sentence on CHLA06 cells, FIG. 24B, read-out: IC50).
Turning to `COc1cc([C@@H]2c3cc4c(cc3[C@H](O)[C@H]3COC(=O)[C@@H]23)OCO4)cc(OC)c1OC` [PPP, Picropodophyllin], in the test on CHLA06 cells [1] (FIG. 38A), the “effect on CHLA06 cells (dose response)” value is on record as “active” and the “effectiveness compared to 429-MMAE in terms of IC50” value is reported as “less effective”.
For `C[C@]1(O)C[C@@H](c2nc(-c3ccc4ccc(-c5ccccc5)nc4c3)c3c(N)nccn32)C1` [Linsitinib], the “effect on CHLA06 cells (dose response)” value in the test on CHLA06 cells [1] (FIG. 38A) was “no effects”.
Turning to FSFGNSSLRKLPGVVRRRRCARGVWR [Skwx-OV-8], the “internalization into cancer cell lines” value in [2] is “internalize”.
On to `Nc1ncnc2c1c(-c1cccc(OCc3ccccc3)c1)cn2C1CC(CN2CCCC2)C1` (centres unmarked) [NVP-ADW742], for which the “effect on CHLA06 cells (dose response)” value with CHLA06 cells [1] (FIG. 38A) was “no effects”.

B1: 429-SMARCB1: 429 construct delivering SmarcB1-myc binding sequence to nucleus (peptide)
chain: DFYGCLLDLSLGVPSLGWRRRCITAWLPSSIPKKKRKVDGQKLRDAFTWNMNEKLMTPEMFSEILCDDLD
modifications: 429 conjugate
Take B1: the “HCT116 cell viability compared to a control” value in the test on HCT116 cells is given as “affects HCT116 cell viability”. In the test with CHLA06 cells [1] (429-SMARCB1 and tazemetostat treatments), the cell viability result is on record as “reduced cell viability”. Moreover, in the test with CHLA06 cells [3], the caspase activity entry was “increased caspase activity”. The “Myc transcription compared to the control” value in the test with Myc transcription (5 nM) and in the test with Myc transcription (50 nM) was “significantly affects Myc transcription” each time. Moreover, the “inhibition of Myc transcription” value in the test with Myc transcription is listed as “inhibits Myc transcription”. Besides, the internalization result in the test on CHLA06 cells [4] (CHLA06 cells) was “internalized”. Moreover, the co-localization with histones result in the test with CHLA06 cells [4] is “co-localizes with histones”. Moreover, the “apoptotic effect in combination with tazemetostat” value with ATRT cell lines was “synergistic apoptotic effect”.

B2: DFYGCLLDLSLGVPSLGWRRRCITAWLPSSIPKKKRKVDGQKLRDAFTWNMNEKLMTPEMFSEILCDDLD (peptide)
chain: DFYGCLLDLSLGVPSLGWRRRCITAWLPSSIPKKKRKVDGQKLRDAFTWNMNEKLMTPEMFSEILCDDLD
modifications: not fully specified
Turning to B2, the “HCT116 cell viability compared to a control” value with HCT116 cells is listed as “inhibited”. Also, the “CHLA06 cell viability compared to 429 control” value in the test on CHLA06 cells [1] (50 ug) was “significantly affected CHLA06 cell viability”. Further, the caspase activity entry with CHLA06 cells [3] and with CHLA02 cells was “significantly increased caspase activity” throughout. Also, the “inhibition of Myc transcription” value in the test with Myc transcription is “inhibited”.
